Test results reported in the supplement of paper PMC9170038.

Test system: MS2 coat protein
Experiment: apparent KD of MS2 coat protein; designed switch direction (-1 OFF switch, 1 ON switch): 1; higher = weaker reporter binding
In short: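 Three titration conditions were used: no input, 200 uM small-molecule ligand, and an oligonucleotide input. In each, SNAP-549-labelled MS2 coat protein was raised from 0.7 or 1.5 nM, doubling, to 3 µM over designed RNA switches transcribed on Illumina chips by stalled E. coli RNA polymerase. Curve fits of normalised cluster fluorescence gave values whose per-design median over clusters is the apparent KD.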

[1] = input ligand: microRNA oligo, concentration not stated
[2] = Eterna round: R95, input ligand: FMN 200 uM
[3] = Eterna round: R95, input ligand: microRNA oligo, concentration not stated
[4] = Eterna round: R95, input ligand: none

| Sequence | apparent KD of MS2 coat protein (input ligand: FMN 200 uM) | apparent KD of MS2 coat protein [1] | apparent KD of MS2 coat protein (input ligand: none) | apparent KD of MS2 coat protein [2] | apparent KD of MS2 coat protein [3] | apparent KD of MS2 coat protein [4] |
| --- | --- | --- | --- | --- | --- | --- |
| UGCUAGGAUAUCUUGAGGAUCACCCAGGAGAAGGAGCCAAGCUAGGAUAUCCUGAGGAUCACCCAGGAGAAGGAGCACAUACUC [pwkr ssNG3 DX 2xF5 +2xFMN.13] (Eterna round: R96, puzzle: Same State NG 3) | 107 nM | 59.6 nM | 102 nM | – | – | – |
| AGCUAGUACCGAGGAUAUACUUACAUGAGGACUACCCAUGUAUACAUGGUUCAAUAGGACUACAUGUAGAAGGCGGUACUAGCA [jandersonlee JLSSNG2 1.24 1FMN F5CU+F7U.1] (Eterna round: R96, puzzle: Same State NG 2) | 595 nM | 26.1 nM | 75.6 nM | – | – | – |
| GGAGCCGGCCUAGGAUAUUUCAUCAAAAAACAUGAGGAUCACCCAUGUAGGCCAGAAGGCCUUGGGAAGAAGGAGGUCGGCUCC [Loop Effect - C24] (Eterna round: R96, puzzle: Same State NG 2) | 10.2 nM | 14.6 nM | 19 nM | – | – | – |
| UUGCGGGCUUGAGGAUAUUGAGUACAUAUGUUUAACAUGAGGAUCACCCAUGUGGGUUGCGGUAUCGAGAAGGUAGCUUCCUGC [salish99_SSNG2_r04_812] (Eterna round: R96, puzzle: Same State NG 2) | 76.3 nM | 83.6 nM | 79.1 nM | – | – | – |
| AUUUAACAAGCUUUUUGCUCGUCUUAUAAACAUGAGGAUCACCCAUGUAAUAGCGUGAGAGUAAUUAUAUUAAUUAU [JMF 101] (puzzle: Sensor for hsa-mir-208a) | – | – | – | 14.7 nM | 36 nM | 14.7 nM |
| GAAGAACAUGAGGAUCACCCAUGUAAGCGGAAGCUAGGAUAUGCGGGAAAGAAAAGAGAAGCAGAAGGAGUAGGAA [JR_SS1_Sub028] (puzzle: Same State 1) | – | – | – | 33 nM | 44.7 nM | 68.2 nM |
| CUCAAACAUGAGGAUCACCCAUGUGUUGUCGUGGGAGGAUAUCCCAGUUCGGUGGCGUCGGGAGAAGGCCUAUGUC [× ×•×ª×• ×ž×“×™× ×” × ×—×ª-16] (puzzle: Same State 1) | – | – | – | 50.4 nM | 100 nM | 129 nM |
| GGUCCAGCCUGAGCUGGACAAAAGCAUGUACAUGAGGAUCACCCAUGUCAUGUACAAGCUUUUUGUUCGUCUUAAAA [JL mod - D87 - 13] (puzzle: Sensor for hsa-mir-208a) | – | – | – | 420 nM | 15.6 nM | 344 nM |
| GUAACAUGACGAGGAUAUGGUACAUGAGGAUCACCCAUGUAUGUACCACGACGCGUACGUCGAAUCCAGAAGGCGUCGUGAAUG [Mat - Same State NG 2 - JL mod - D21] (Eterna round: R96, puzzle: Same State NG 2) | 26.5 nM | 68.5 nM | 70.1 nM | – | – | – |
| AAUUAUUUACAUGAGGAUCACCCAUGUAUUAUUACAAGCUUUAUCCUCGUUUUAUUUAUUAUUAUUAUUAUUAUUAA [benbell_design1] (puzzle: Sensor for hsa-mir-208a version 2) | – | – | – | 369 nM | 33 nM | 326 nM |
| AGUCCAGCCUGAGCUGGACAAAAGCAUGUACAUGAGGAUCACCCAUGUCAUGUACAAGCUUUUUGCUCGUCUAAAUA [Mat - hsa-mir-208a - Mod of JL - D27] (puzzle: Sensor for hsa-mir-208a) | – | – | – | 516 nM | 15.8 nM | 699 nM |
| GGAAUAUUUACAGGAUAUGAGUUGUAAAGUCGAUCAGAAGGGUAGAUGUCUUACACGGUUUGUUACAUGAGGAUCACCCAUGUU [SameState NG1 #18] (Eterna round: R96, puzzle: Same State NG 1) | 66.9 nM | 75.6 nM | 86.6 nM | – | – | – |
| GGACGUCAUCUCACUGAUUAAACAUGAGGAUCACCCAUGUCAGAGGAUAUGAGUCCGAUUAGGACUCAGAAGGCUGUGACGUCC [Fiskers NG3ss - 46] (Eterna round: R96, puzzle: Same State NG 3) | 19.6 nM | 9.14 nM | 16 nM | – | – | – |
| UAAUUAAGUCAAGGAUAUCACGUCGUUUAGACGUGAGAAGGUGAUUAAUACAUGAGGAUCACCCAUGUAAUACAUGAAUAAUUA [SSNG1/11-B3] (Eterna round: R96, puzzle: Same State NG 1) | 51.3 nM | 59.5 nM | 64.5 nM | – | – | – |
| AGUCCAGCCUGAGCUGGACAAAAGCAUGUACAUGAGGAUCACCCAUGUCAUGUACAAGCUUUUUGCUCGUUUUAAAA [Zipper 46 - 13] (Eterna round: R96, puzzle: Sensor for hsa-mir-208a) | 633 nM | 12.9 nM | 611 nM | – | – | – |
| GAGCUCGUGUGAGGAUAUGCCGCCGUUUCGGCUGCAGAAGGUGCUACGUUACAUGAGGAUCACCCAUGUCUCUGUUGUUUCGUA [salish99_SSNG1_r04_960] (Eterna round: R96, puzzle: Same State NG 1) | 65.1 nM | 43.3 nM | 51.1 nM | – | – | – |

| Sequence | apparent KD of MS2 coat protein (input ligand: FMN 200 uM) | apparent KD of MS2 coat protein [1] | apparent KD of MS2 coat protein (input ligand: none) | apparent KD of MS2 coat protein [2] | apparent KD of MS2 coat protein [3] | apparent KD of MS2 coat protein [4] |
| --- | --- | --- | --- | --- | --- | --- |
| UUUGGGUGGCUGGAGGAUAUCCUGGUUGUUACAUGAGGAUCACCCAUGUGCCGCGCGGUUCGCGAGGAGAAGGCUGGCGGCCGUU (puzzle: Same State 2) | – | – | – | – | 91.2 nM | – |
| GGUCCAGCCUGAGCUGGACUAUAGCAUGUACAUGAGGAUCACCCAUGUCAUGUACAAGUAUGUUGUUUGUCUUGAAA [Sensorship 6 - Jieux - Sensor for hsa-mir-208a] (puzzle: Sensor for hsa-mir-208a) | – | – | – | 21.4 nM | 15.3 nM | 20.2 nM |
| CAGCGCUGUCGAGAGGAUAUGCGGUGAUGGACAUGAGGAUCACCCAUGUUAGCGAUAGCAUUACGGUAGAAGGCUCUGCAGCUGC [Soteed - 1] (puzzle: Same State 2) | – | – | – | – | 78.9 nM | – |
| AGUCCUGAAUAAAUUAAACAGAGACAUGUACAUGAGGAUCACCCAUGUCAUGUACAAGUUCUAUGCUCGUCAUAUAA [Sensorship 19 - Jieux - Sensor for hsa-mir-208a] (puzzle: Sensor for hsa-mir-208a) | – | – | – | 23 nM | 14.6 nM | 24.7 nM |
| UUGAAGAACAUAGGAUAUUGAAUACAUAUGUUUAACAUGAGGAUCACCCAUGUGGGUUGCGGUAUCGAGAAGGAUGAAUAAAAG [Mat - Same State NG 2 - JL mod - D15] (Eterna round: R96, puzzle: Same State NG 2) | 328 nM | 259 nM | 256 nM | – | – | – |
| GGACGUCACAUUAACAUGAGGAUCACCCAUGUCAAAAGACAUGAGGAUAUGGAUCCUAAUUGGAUCCAGAAGGCAUGGACGUCC [Fiskers NG3ss - 39] (Eterna round: R96, puzzle: Same State NG 3) | – | 373 nM | – | – | – | – |
| UUGGUUGUCGUAGGAUAUGUAGGAUAUGCCUACAUGAGGAUCACCCAUGUUCGCAUGGCAGAAGGACAGAAGGACGAUGACCAU [pwkr ssNG2 2FMN + 1F5.19] (Eterna round: R96, puzzle: Same State NG 2) | 13 nM | 20.5 nM | 50.2 nM | – | – | – |
| AGAUGUUAAUUAGGAUAUGGGCACAUGAGGAUCACCCAUGUAUUUUCGAUGCUAUGUGGAGACGUCUAGAAGGGAUGGCUAACA [SameState NG2 #87] (Eterna round: R96, puzzle: Same State NG 2) | 198 nM | 137 nM | 142 nM | – | – | – |
| AUUUAACAAGCUUUUUGCUCGUCUUAUAAACAUGAGGAUCACCCAUGUAAUAGCGUGAGAGUUAUUAUAUAAAUAAU [JMF 87] (puzzle: Sensor for hsa-mir-208a) | – | – | – | 18 nM | 33.1 nM | 16.7 nM |
| GACGUGAAGGCAGGAUAUGGGAAAGGAAGUGUACCAGAAGGGCCUGGAAAACAUGAGGAUCACCCAUGUGAACCCACGUCAGUU [PowerStrip SSNG 1.26] (Eterna round: R96, puzzle: Same State NG 1) | 16 nM | 35.4 nM | 27.9 nM | – | – | – |
| UUAGCACAUGAGGAUCACCCAUGUACUAUACUCAUAGGAUAUACAAAGUCUUAAGACGUGGUAGAAGGGUGAGGAA [Zaateddi] (puzzle: Same State 1) | – | – | – | 101 nM | 106 nM | 128 nM |
| GCAGAACAUGAGGAUCACCCAUGUCUCUAAUAUCGAGGAUAUGGGCACGGUAUAUCCGAACCAGAAGGCGAACUGC [SS1 Teenbexe 15] (puzzle: Same State 1) | – | – | – | – | 244 nM | – |
| GCCGGCUGGUGAGGAUAUGGCACCUUAUUGGUGCCAGAAGGCAUGUCAAUUGACAUGAGGAUCACCCAUGUAUUGUCGUUGGCG [salish99_SSNG1_r04_608] (Eterna round: R96, puzzle: Same State NG 1) | 819 nM | 194 nM | 399 nM | – | – | – |
| CUGCAACAUGAGGAUCACCCAUGUAACCCAAUUAUAGGAUAUGUGAUGGUGAUCGACAUGACAGAAGGGUGAUUGG [Arinra] (Eterna round: R96, puzzle: Same State 1) | 174 nM | 29.7 nM | 41.8 nM | – | – | – |
| UAAGUAUGUUGAGGAUAUUAUGUCAAGAGAGAUGACAUGAGGAUCACCCAUGUGUGAAGAGGAUUUAAGAAGGCAACAUACUUA [JR_SSNG2_Sub090] (Eterna round: R96, puzzle: Same State NG 2) | 39.9 nM | 47.7 nM | 66.7 nM | – | – | – |
